# Reference: PMC4165444 (Biochemistry, 2014)
# Target: the molecule itself
# Assay: crystal structure
protein,measurement,value
"Saccharomyces cerevisiae alcohol dehydrogenase I (enzyme, UniProt P00330 1-348, looked up, disulfide bond between Cys-277 residues of the two subunits of a dimer) MSIPETQKGVIFYESHGKLEYKDIPVPKPKANELLINVKYSGVCHTDLHAWHGDWPLPVKLPLVGGHEGAGVVVGMGENVKGWKIGDYAGIKWLNGSCMACEYCELGNESNCPHADLSGYTHDGSFQQYATADAVQAAHIPQGTDLAQVAPILCAGITVYKALKSANLMAGHWVAISGAAGGLGSLAVQYAKAMGYRVLGIDGGEGKEELFRSIGGEVFIDFTKEKDIVGAVLKATDGGAHGVINVSVSEAAIEASTRYVRANGTTVLVGMPAGAKCCSDVFNQVVKSISIVGSYVGNRADTREALDFFARGLVKSPIKVVGLSTLPEIYEKMEKGQIVGRYVVDTSK",stoichiometry N,4 subunits per oligomer
